The values that follow are results of earlier work, collected in PMC8745658.

pKd: −log10 of the molar value.

This data set concerns the target Cytochrome b5 soluble isoform (Homo sapiens) (UniProt P00167). The data set is described as follows: flavin autofluorescence.
UniProt P00167, sequence (P00167 2-98): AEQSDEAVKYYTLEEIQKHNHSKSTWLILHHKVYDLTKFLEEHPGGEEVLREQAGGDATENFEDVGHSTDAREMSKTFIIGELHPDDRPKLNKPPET

A word on the pKd: it is the Kd on a negative log10 scale, so that one unit is a factor of ten. “Cytochrome b5 reductase soluble isoform (from UniProt P00387)”: the negative logarithm of the Kd (pKd) is 6.30.
